A value given as a limit tells only on which side of the number the result lay.

For test [1], the target named is F-actin (actin filaments from rabbit skeletal muscle actin) (rabbit) (UniProt P68135). Nature of the test: single-molecule TIRF microscopy.
Test [2] concerns the target mN2G^CH (N-terminal CH domains of nesprin-2G only) (mouse). Description: mass photometry.

As a reminder, the stoichiometry N is the number of molecules, sites or subunits per partner or assembly. Substance “mN2G^CH (N-terminal CH domains of nesprin-2G only) (domain or fragment)” yielded a fold residence time on F-actin against utrophin in test [1] of over 2 fold. Further, the stoichiometry N in test [2] amounted to 2.

The values above are taken from PMC11844729.
